Data reported in patent publication US20170298096A1 (CANIMGUIDE THERAPEUTICS, published 2017).
No end group written: not given here.

Target: T1, His-tagged P3028 (human, also: His-tag, terminus and sequence not given here)
T1 construct: used in solution in the PEPSCAN (rampo) ELISA; also called PGE73; His-tag-P3028; not shown: His tag
T1 peptide: VFDEFKPLVEEPQNLIK
Assay: PEPSCAN ELISA (rampo)

| Binder | rampo value [rampo units] | rampo score relative to the P28R control sample |
| --- | --- | --- |
| KKLDTFTVKLSLFTER [SEQ ID NO 12] | > 500 | – |
| KKLDMFFVKLSLFTER [SEQ ID NO 305] | – | ≥ 98 % of P28R control |
| KKLDTFFVKLSLATER [SEQ ID NO 29] | > 500 | – |
| QKLDTFFVKLSLFTER [SEQ ID NO 278] | – | ≥ 98 % of P28R control |
| VKLDTFFVKLSLFTER [SEQ ID NO 281] | – | ≥ 98 % of P28R control |
| KKLDNFFVKLSLFTER [SEQ ID NO 306] | – | ≥ 98 % of P28R control |
| KKLDTFFVKLSLFNER [SEQ ID NO 31] | > 500 | – |
| KKLVTFFVKLSLFTER [SEQ ID NO 301] | – | ≥ 98 % of P28R control |
| KKGDTFFVKLSLFTER [SEQ ID NO 287] | – | ≥ 98 % of P28R control |
| KKLDPFFVKLSLFTER [SEQ ID NO 307] | – | ≥ 98 % of P28R control |
| KKLITFFVKLSLFTER [SEQ ID NO 300] | – | ≥ 98 % of P28R control |
| KKRDTFFVKLSLFTER [SEQ ID NO 294] | – | ≥ 98 % of P28R control |
| KKLDTFFVKLSMFTER [SEQ ID NO 21] | > 500 | – |
| KKHDTFFVKLSLFTER [SEQ ID NO 288] | – | ≥ 98 % of P28R control |
| AKLDTFFVKLSLFTER [SEQ ID NO 268] | – | ≥ 98 % of P28R control |
| KKLATFFVKLSLFTER [SEQ ID NO 298] | – | ≥ 98 % of P28R control |
| GKLDTFFVKLSLFTER [SEQ ID NO 271] | – | ≥ 98 % of P28R control |
| RKLDTFFVKLSLFTER [SEQ ID NO 279] | – | ≥ 98 % of P28R control |
| KKLYTFFVKLSLFTER [SEQ ID NO 303] | – | ≥ 98 % of P28R control |
| KKLDRFFVKLSLFTER [SEQ ID NO 309] | – | ≥ 98 % of P28R control |
| KKVDTFFVKLSLFTER [SEQ ID NO 297] | – | ≥ 98 % of P28R control |
| KKLDTFFVKLSLPTER [SEQ ID NO 26] | > 500 | – |

| Binder | rampo value [rampo units] | rampo score relative to the P28R control sample |
| --- | --- | --- |
| KKLDTFFVKLSQFTER [SEQ ID NO 19] | > 500 | – |
| KKLDTFFVKLSVFTER [SEQ ID NO 20] | > 500 | – |
| KKLDQFFVKLSLFTER [SEQ ID NO 308] | – | ≥ 98 % of P28R control |
| LKLDTFFVKLSLFTER [SEQ ID NO 274] | – | ≥ 98 % of P28R control |
| KKLDTFFVKLHLFTER [SEQ ID NO 18] | > 500 | – |
| KKKDTFFVKLSLFTER [SEQ ID NO 290] | – | ≥ 98 % of P28R control |
| KKLDTFFVKVSLFTER [SEQ ID NO 14] | > 500 | – |
| KKDDTFFVKLSLFTER [SEQ ID NO 284] | – | ≥ 98 % of P28R control |
| TKLDTFFVKLSLFTER [SEQ ID NO 280] | – | ≥ 98 % of P28R control |
| KKLDTIFVKLSLFTER [SEQ ID NO 314] | – | ≥ 98 % of P28R control |
| KKLETFFVKLSLFTER [SEQ ID NO 299] | – | ≥ 98 % of P28R control |
| KKLDWFFVKLSLFTER [SEQ ID NO 311] | – | ≥ 98 % of P28R control |
| KKLDYFFVKLSLFTER [SEQ ID NO 312] | – | ≥ 98 % of P28R control |
| IKLDTFFVKLSLFTER [SEQ ID NO 273] | – | ≥ 98 % of P28R control |
| KKFDTFFVKLSLFTER [SEQ ID NO 286] | – | ≥ 98 % of P28R control |
| KKLDCFFVKLSLFTER [SEQ ID NO 304] | – | ≥ 98 % of P28R control |
| KKLDTAFVKLSLFTER [SEQ ID NO 313] | – | ≥ 98 % of P28R control |
| KKLDTPFVKLSLFTER [SEQ ID NO 317] | – | ≥ 98 % of P28R control |
| MKLDTFFVKLSLFTER [SEQ ID NO 275] | – | ≥ 98 % of P28R control |
| KKEDTFFVKLSLFTER [SEQ ID NO 285] | – | ≥ 98 % of P28R control |
| KKCDTFFVKLSLFTER [SEQ ID NO 283] | – | ≥ 98 % of P28R control |
| KKLDTFFVKLSLSTER [SEQ ID NO 27] | > 500 | – |

| Binder | rampo value [rampo units] | rampo score relative to the P28R control sample |
| --- | --- | --- |
| KKLDTMFVKLSLFTER [SEQ ID NO 315] | – | ≥ 98 % of P28R control |
| KKQDTFFVKLSLFTER [SEQ ID NO 293] | – | ≥ 98 % of P28R control |
| KKLDTFFVKLSLRTER [SEQ ID NO 30] | > 500 | – |
| DKLDTFFVKLSLFTER [SEQ ID NO 269] | – | ≥ 98 % of P28R control |
| HKLDTFFVKLSLFTER [SEQ ID NO 272] | – | ≥ 98 % of P28R control |
| KKLDTFFVKLTLFTER [SEQ ID NO 17] | > 500 | – |
| EKLDTFFVKLSLFTER [SEQ ID NO 270] | – | ≥ 98 % of P28R control |
| KKLDTFFVKLSLFRER [SEQ ID NO 33] | > 500 | – |
| KKLDTNFVKLSLFTER [SEQ ID NO 316] | – | ≥ 98 % of P28R control |
| KKIDTFFVKLSLFTER [SEQ ID NO 289] | – | ≥ 98 % of P28R control |
| KKSDTFFVKLSLFTER [SEQ ID NO 295] | – | ≥ 98 % of P28R control |
| KKLDSFFVKLSLFTER [SEQ ID NO 310] | – | ≥ 98 % of P28R control |
| KKLDTFFVKLSLFPER [SEQ ID NO 32] | > 500 | – |
| KKLDTFFVKLSLGTER [SEQ ID NO 28] | > 500 | – |
| KKMDTFFVKLSLFTER [SEQ ID NO 291] | – | ≥ 98 % of P28R control |
| KKLDTFLVKLSLFTER [SEQ ID NO 13] | > 500 | – |
| KKNDTFFVKLSLFTER [SEQ ID NO 292] | – | ≥ 98 % of P28R control |
| KKADTFFVKLSLFTER [SEQ ID NO 282] | – | ≥ 98 % of P28R control |
| NKLDTFFVKLSLFTER [SEQ ID NO 276] | – | ≥ 98 % of P28R control |
| KKLWTFFVKLSLFTER [SEQ ID NO 302] | – | ≥ 98 % of P28R control |
| KKTDTFFVKLSLFTER [SEQ ID NO 296] | – | ≥ 98 % of P28R control |
| PKLDTFFVKLSLFTER [SEQ ID NO 277] | – | ≥ 98 % of P28R control |
